Test results from paper PMC3380823.

Key:
[1] = target: CrPLC C7A mutant (Chlamydomonas reinhardtii); test: SEC; HiLoad 16/60 Superdex 200 prep grade and Superose 12 10/300 GL analytical columns, PBS, 1 ml/min, 4°C, no reducing agent; calibrated with molecular weight standards; 5 to 50 µM on the analytical column; monomer and dimer fractions reloaded
[2] = target: recombinant phospholipase C of Chlamydomonas reinhardtii (CrPLC), wild type (Chlamydomonas reinhardtii); test: as above

Substance	percent of dimerization disrupted [1] [%]	stoichiometry N [2]
CrPLC C7A mutant (enzyme)	95	
recombinant phospholipase C of Chlamydomonas reinhardtii (CrPLC), wild type (enzyme)		2
